# Experimental data reported in patent US20090035266A1 (US Dept. of Health and Human Services, published 2009).
# B1: P16 (native) PAGE4 peptide, amino acids 16-25 (peptide)
# peptide: QEAPDVVAFV
# notes: Synthetic peptide, purity >95%; also called P16-25
# B2: MUC-1 peptide (peptide)
# peptide: ALWGQDVTSV
# notes: Positive control of the T2 assay; also called positive control
# Molecular target: T1, HLA-A2 molecules on T2 cells (human)
# T1 construct: whole, on cells; MHC class I molecule on the cell surface; also called HLA-A2.1
# Experiment: T2 cell HLA-A2 upregulation assay, flow cytometry
# Protocol: (§1) The primary amino acid sequence of human PAGE4 was analyzed for consensus motifs for novel HLA-A2 binding peptides. Two 10-mer peptides (P16-25 designated as P16 and P59-68 designated as P59) and one 9-mer peptide (P84-92 designated as P84) were identified and evaluated (Table 1). […] For this reason, five different analogues of native peptides were synthesized and were investigated for their binding ability to HLA-A2-positive T2 cells along with the native P16, P59 and P84 peptides. A MUC-1 peptide and a CEA HLA-A3 binding peptide (CAP-7) were used as a positive and negative control, respectively (Tsang et al., J Natl Cancer Inst 1995; 87:982-90).
row,binding result,Binder
1,no binding (tested: 25 µg/ml),"VEGDCQEMDL (Synthetic peptide; also called P59-68) [P59 (native) PAGE4 peptide, amino acids 59-68]"

# Molecular target: T1, HLA-A2 molecules on T2 cells
# Experiment: T2 cell HLA-A2 upregulation assay, flow cytometry, peptide 25 µg/ml
# Protocol: as §1
# Peptides were used at a concentration of 25 μg/ml. Amino acids are shown by the single-letter code. Substitution amino acids are indicated in bold italic and underlined. MUC-1 peptide is an HLA-A2 binding peptide and CAP-7 is an HLA-A3 binding CEA peptide. ^aResults are expressed in mean fluorescence intensity (MFI). Values in parentheses are fold increases as compared with the negative control.
T2 binding (MFI),fold increase as compared with the negative control [fold],Binder
546,2.1,YLPPNPKHV (also called P84-1) [P84 (84Y/85L/92V) PAGE4 agonist peptide]
384,1.5,YLGDCQEMDV (also called P59-2) [P59 (59Y/60L/68V) PAGE4 analogue peptide]
270,1.04,"KTPPNPKHA (Synthetic peptide; also called P84-92) [P84 (native) PAGE4 peptide, amino acids 84-92]"
309,1.2,B1
790,3,YLAPDVVAFV (also called P16-2) [P16 (16Y/17L) PAGE4 agonist peptide]
827,3.2,QLAPDVVAFV [P16 (17L) PAGE4 agonist peptide]
246,0.9,"VEGDCQEMDL (Synthetic peptide; also called P59-68) [P59 (native) PAGE4 peptide, amino acids 59-68]"
293,1.1,VLGDCQEMDL (also called P59-1) [P59 (60L) PAGE4 analogue peptide]
710,2.7,B2

# Molecular target: T1, HLA-A2 molecules on T2 cells
# Experiment: T2 cells loaded overnight with 12.5 µg/ml peptide, washed, brefeldin A, surface HLA-A2 by flow cytometry (FIG. 1B)
# Protocol: FIGS. 1A and 1B are line graphs showing the binding of native PAGE4 peptides and their agonist peptides to HLA-A2 molecules. Peptides were analyzed for binding to T2 cell line as described in Example 1. For the results presented in FIG. 1A, peptides were used at concentrations of 0 to 25 μg/ml. P16 peptide (◯), P16-1, P16-2 (▴), P84 (□) and P84-1 (▪), positive control (MUC-1 peptide) (+) and negative control (HLA-A3 binding peptide) (X). Results are expressed in mean fluorescence intensity (MFI). FIG. 1B presents a comparison of the stability of HLA-A2 peptide complexes of PAGE4 native and agonist peptides. T2 cells were incubated overnight with P16 peptide (◯), P16-1, P16-2 (▴), P84 (□) and P84-1 (▪) peptides at a concentration of 12.5 μg/ml and then were washed free of unbound peptide and incubated with brefeldin A to block delivery of new class 1 molecules to the cell surface. At the indicated times, cells were stained for the presence of surface peptide-HLA-A2 complexes. Results are expressed in relative percentage of binding compared with 100% at time 0.
# The analogues of P16 were designated P16-1 and P16-2, and the analogue of P84 was designated as P84-1. These peptides bound to HLA-A2 at higher levels than their native peptides. Studies were then conducted to examine the ability of these peptides to bind HLA-A2 at various concentrations. […] Studies were then undertaken to examine the stability of the peptide-MHC complex for the peptides P16, P84, P16-1, P16-2 and P84-1. Each peptide was incubated with T2 cells overnight, the unbound peptides were washed off, and the cells were then incubated with Brefeldin A to block delivery of new class I molecules to the cell surface. Cells were analyzed for the presence of peptide-HLA-A2 complexes at various time points.
row,percent of peptide-HLA-A2 complexes remaining over 8 hours [%],Binder
1,> 43.6,YLPPNPKHV (also called P84-1) [P84 (84Y/85L/92V) PAGE4 agonist peptide]
2,> 43.6,"KTPPNPKHA (Synthetic peptide; also called P84-92) [P84 (native) PAGE4 peptide, amino acids 84-92]"
3,> 43.6,YLAPDVVAFV (also called P16-2) [P16 (16Y/17L) PAGE4 agonist peptide]
4,> 43.6,QLAPDVVAFV [P16 (17L) PAGE4 agonist peptide]
